Patent US20230414590

Target: T1, iron-sulfur cluster assembly (ISCU) protein, Q9H1K1
T1 chain: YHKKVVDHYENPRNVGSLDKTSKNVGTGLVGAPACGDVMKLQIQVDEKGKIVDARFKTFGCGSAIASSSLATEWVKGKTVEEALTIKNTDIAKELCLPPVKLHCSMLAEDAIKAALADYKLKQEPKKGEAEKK

B1: glutathione S-transferase P (GSTP1) (protein)
chain: PPYTVVYFPVRGRCAALRMLLADQGQSWKEEVVTVETWQEGSLKASCLYGQLPKFQDGDLTLYQSNTILRHLGRTLGLYGKDQQEAALVDMVNDGVEDLRCKYISLIYTNYEAGKDDYVKALPGQLKPFETLLSQNQGGKTFIVGDQISFADYNLLDLLLIHEVLAPGCLDAFPLLSAYVGRLSARPKLKAFLASPEYVNLPINGNGKQ
  ISCU glutathionylation (α-GSH immunoblot after α-ISCU immunoprecipitation) in PAECs with GSTP1 knockdown: with GSTP1 knockdown, α-ISCU immunoprecipitation revealed a concomitant reduction of GSTP1 pulldown and glutathionylated ISCU in favor of non-glutathionylated ISCU
